Results on 1 substance are retold here after patent US20250051413A1.

In the assay the target is human IL-12 receptor (b1 and b2 chain) (human) (UniProt P42701). The assay can be described thus: cell-based or functional assay.
Sequence of human IL-12 receptor (b1 and b2 chain) (human) (Q99665 24-862, chain 2 of 2, other chains not shown): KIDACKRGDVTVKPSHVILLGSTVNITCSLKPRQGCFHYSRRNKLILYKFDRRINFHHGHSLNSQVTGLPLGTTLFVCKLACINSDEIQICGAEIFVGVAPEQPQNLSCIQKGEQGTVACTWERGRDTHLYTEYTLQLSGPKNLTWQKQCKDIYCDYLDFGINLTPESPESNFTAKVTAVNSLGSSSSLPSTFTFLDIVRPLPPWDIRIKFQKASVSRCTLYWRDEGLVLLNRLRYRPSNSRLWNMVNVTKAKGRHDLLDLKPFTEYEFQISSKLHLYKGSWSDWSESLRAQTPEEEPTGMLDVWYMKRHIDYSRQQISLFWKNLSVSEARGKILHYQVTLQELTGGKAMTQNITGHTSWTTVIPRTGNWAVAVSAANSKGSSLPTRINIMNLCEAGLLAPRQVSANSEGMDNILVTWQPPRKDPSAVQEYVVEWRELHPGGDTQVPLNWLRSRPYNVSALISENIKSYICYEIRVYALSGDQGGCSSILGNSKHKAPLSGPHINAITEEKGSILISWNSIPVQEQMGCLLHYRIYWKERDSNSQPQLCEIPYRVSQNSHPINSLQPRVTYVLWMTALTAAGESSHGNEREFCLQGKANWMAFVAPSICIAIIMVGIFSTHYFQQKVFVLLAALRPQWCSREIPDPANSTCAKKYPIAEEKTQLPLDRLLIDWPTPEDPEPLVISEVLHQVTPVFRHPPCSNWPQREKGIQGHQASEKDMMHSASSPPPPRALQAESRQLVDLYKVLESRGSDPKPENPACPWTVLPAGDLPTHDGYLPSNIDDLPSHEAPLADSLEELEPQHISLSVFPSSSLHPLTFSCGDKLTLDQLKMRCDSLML

Sequence of Human recombinant IL-12 (P29460 23-328 limits assumed): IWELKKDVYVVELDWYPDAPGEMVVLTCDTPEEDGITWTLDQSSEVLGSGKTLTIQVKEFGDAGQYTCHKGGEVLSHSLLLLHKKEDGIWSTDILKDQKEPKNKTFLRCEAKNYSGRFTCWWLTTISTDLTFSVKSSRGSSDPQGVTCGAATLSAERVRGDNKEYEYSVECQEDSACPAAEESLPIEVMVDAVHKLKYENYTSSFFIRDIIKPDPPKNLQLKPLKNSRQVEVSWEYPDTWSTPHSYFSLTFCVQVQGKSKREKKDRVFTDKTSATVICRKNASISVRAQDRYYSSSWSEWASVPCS
Sequence of Human recombinant IL-12 (P29459 23-219 limits assumed): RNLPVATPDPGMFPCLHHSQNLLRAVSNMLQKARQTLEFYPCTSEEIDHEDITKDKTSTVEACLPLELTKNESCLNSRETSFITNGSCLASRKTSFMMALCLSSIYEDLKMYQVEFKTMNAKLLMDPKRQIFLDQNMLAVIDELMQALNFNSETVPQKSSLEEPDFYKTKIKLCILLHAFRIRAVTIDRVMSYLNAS

“Human recombinant IL-12 (from UniProt P29460 23-328; P29459 23-219) (ligand)” displayed an E-max (Maximal response), p-STAT4 positive cells, CD8+ T cells and NK cells of 60 to 80%; an EC50 of p-STAT4 induction in human PBMC, CD4+ T cells of 0.072 nM; an EC50 of p-STAT4 induction in human PBMC, CD8+ T cells of 0.045 nM; an EC50 of p-STAT4 induction in human PBMC, NK cells of 0.166 nM.
